Experimental data: US20040235764A1

Target: fibronectin
Experiment: cell-based or functional assay

“integrin α3β1 (from UniProt Q62470 33-1053; P09055 21-798) (receptor)” was tested, and the cell adhesion assay: attached F9 cells counted on fibronectin-coated wells after co-transfection with dsRNA integrin α3; reduction against F9 wild-type and co-transfection controls was 40%.
